Here are results for seven molecules from article PMC12273708, “Biochemical and Biophysical Divergences between Two L‑Asparaginase II Variants: Potential for Using EcA2-K12 as a Biosimilar” (Biochemistry, 2025).

For series [1], the target named is T1, EcA2-K12 (L-asparaginase II, K12 strain) (Escherichia coli, UniProt P00805).
T1 construct: gene ansB; mature protein (precursor residues 23 to 348) behind a pelB leader, pET25b, secreted from E. coli BL21(DE3), purified from medium; no tag mentioned; homotetramer with four active sites
T1 sequence (P00805 23-348): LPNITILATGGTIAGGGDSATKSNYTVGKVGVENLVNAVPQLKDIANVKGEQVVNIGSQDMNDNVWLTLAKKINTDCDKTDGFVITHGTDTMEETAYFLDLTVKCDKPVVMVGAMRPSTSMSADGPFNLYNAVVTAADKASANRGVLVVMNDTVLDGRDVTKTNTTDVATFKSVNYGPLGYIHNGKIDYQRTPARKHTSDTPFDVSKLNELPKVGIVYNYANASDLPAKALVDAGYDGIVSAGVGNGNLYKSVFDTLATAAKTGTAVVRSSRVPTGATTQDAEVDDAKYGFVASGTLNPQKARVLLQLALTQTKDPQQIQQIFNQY
As to the kind of experiment: intrinsic tryptophan fluorescence titration (spectral center of mass), Hill fit. In kind it is binding.

Series [2] has as its target T2, EcA2-4M (L-asparaginase II, BL21(DE3) / Elspar sequence) (Escherichia coli, UniProt P00805, N86D/S274T/T285N/V49A).
T2 construct: gene ansB; mature protein (precursor residues 23 to 348) behind a pelB leader, pET25b, secreted from E. coli BL21(DE3), purified from medium; no tag mentioned; homotetramer with four active sites
T2 sequence (P00805 23-348 V49A/N86D/S274T/T285N): T1 sequence (P00805 23-348) with V27A, N64D, S252T, T263N
The series is described as above. In kind it is binding.

Series [3] in a line: SEC; analytical size exclusion chromatography, TSKgel G2000SWXL, 50 uM enzyme in 25 mM sodium phosphate pH 7.4, 100 mM sodium chloride, 0.35 mL/min; hydrodynamic radius against globular standards. In general terms: In gel filtration, larger molecules generally elute earlier.
Series [4] addresses L-asparaginase II from the K12 strain (EcA2-K12) (Escherichia coli, strain K12 (strain printed; the species name is lost from the text shown)). Described as above.
Series [5] has as its target L-asparaginase II variant EcA2-4M (sequence of the BL21(DE3) strain and of Elspar) (Escherichia coli, strain BL21(DE3) (strain printed; the species name is lost from the text shown)). The series is described as above.
Substrate in series [6]: NC(=O)CC[C@H](N)C(=O)O
As to the kind of experiment: 1D 1H NMR progress curves, Lambert W fit of integrated Michaelis-Menten equation. It is filed as biochemical, Escherichia coli. To be noted: 640 μM L-Gln, 2.5 μM enzyme, 100 mM sodium phosphate pH 8.0, 10% D2O, 25 °C. The source says:
(§1) 1D 1H NMR progress curves, Lambert W fit of integrated Michaelis-Menten equation on EcA2-K12 (L-asparaginase II, K12 strain)

Substrate in series [7]: NC(=O)C[C@H](N)C(=O)O
Described as above. To be noted: 160 μM L-Asn, 2.1 nM enzyme, 100 mM sodium phosphate pH 8.0, 10% D2O, 25 °C. In kind it is biochemical, Escherichia coli.
Excerpt: as §1

Substrate in series [8]: NC(=O)CC[C@H](N)C(=O)O
The description is as above. It is filed as biochemical, Escherichia coli. To be noted: 640 μM L-Gln, 1.3 μM enzyme, 100 mM sodium phosphate pH 8.0, 10% D2O, 25 °C. The source says: (§2) 1D 1H NMR progress curves, Lambert W fit of integrated Michaelis-Menten equation on EcA2-4M (L-asparaginase II, BL21(DE3) / Elspar sequence)

Substrate in series [9]: NC(=O)C[C@H](N)C(=O)O
Described as above. It is filed as biochemical, Escherichia coli. To be noted: 160 μM L-Asn, 1.0 nM enzyme, 100 mM sodium phosphate pH 8.0, 10% D2O, 25 °C.
Excerpt: as §2

Substitutions are numbered along the chain they refer to. Names may count otherwise.

In general, Kd refers to the concentration at which binding is half-saturated. Low readings indicate a tighter complex, high ones a looser complex. On to `N[C@@H](CC(=O)O)C(=O)O` [L-Asp], for which the values for the Kd in series [1] and in series [2] were 211 ± 52 µM and 66 ± 14 µM, respectively.
For “L-asparaginase II from the K12 strain (EcA2-K12)”, the “prepeak percentage of the total area (species of larger hydrodynamic radii)” value in [3] was determined as 13% for EcA2-K12.
As usually defined, the stoichiometry N is a count of units in the complex or per binding partner. Consider “L-asparaginase II from the K12 strain (EcA2-K12) (enzyme)”, for which the stoichiometry N in [4] amounted to 4.
As to “L-asparaginase II variant EcA2-4M (sequence of the BL21(DE3) strain and of Elspar)”, the “prepeak percentage of the total area (species of larger hydrodynamic radii)” value in [3] was “approximately 5%”.
On to “L-asparaginase II variant EcA2-4M (sequence of the BL21(DE3) strain and of Elspar) (enzyme)”, for which the stoichiometry N in series [5] stood at 4.

B1: EcA2-K12 (L-asparaginase II, K12 strain) (Escherichia coli K-12) (protein)
chain: T1 sequence (P00805 23-348)
notes: mature protein (precursor residues 23 to 348) behind a pelB leader, pET25b, secreted from E. coli BL21(DE3), purified from medium; no tag mentioned; homotetramer with four active sites
By Km is commonly meant the substrate concentration at which the rate is half of its maximum. As to B1, the values for the Km in [6] and in series [7] were 2301 ± 75 µM and 8 ± 3 µM, respectively.

B2: EcA2-4M (L-asparaginase II, BL21(DE3) / Elspar sequence) (Escherichia coli K-12; N86D/S274T/T285N/V49A) (protein)
chain: T1 sequence (P00805 23-348) with V27A, N64D, S252T, T263N
notes: as for B1
As for B2, the figures for the Km in series [8] and in series [9] were 3111 ± 159 µM and 11 ± 5 µM, respectively.
